# Test results from paper PMC314469, “Protein Interaction Networks by Proteome Peptide Scanning” (PLoS Biology, 2004).
# T1: Boi1 SH3 (BOI1_YEAST), P38041
# T1 chain: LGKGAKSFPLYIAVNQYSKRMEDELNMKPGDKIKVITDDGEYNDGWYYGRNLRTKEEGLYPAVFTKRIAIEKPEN
# T2: Rvs167 SH3 (RV167_YEAST), P39743
# T2 chain: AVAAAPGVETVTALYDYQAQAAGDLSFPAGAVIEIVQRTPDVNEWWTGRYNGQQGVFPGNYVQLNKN
# T3: Yfr024 SH3 (LSB3_YEAST), P43603
# T3 chain: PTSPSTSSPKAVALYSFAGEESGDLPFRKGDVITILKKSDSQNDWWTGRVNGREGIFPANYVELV
# T4: Yhr016c SH3 (YSC84_YEAST), P32793
# T4 chain: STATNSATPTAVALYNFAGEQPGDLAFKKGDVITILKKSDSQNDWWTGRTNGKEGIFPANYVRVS
# T5: Boi2 SH3 (BOI2_YEAST), P39969
# T5 chain: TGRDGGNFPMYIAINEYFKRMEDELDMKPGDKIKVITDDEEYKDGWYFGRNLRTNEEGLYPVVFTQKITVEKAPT
# Biological target: T1, Boi1 SH3 (BOI1_YEAST), P38041
# Experiment: SPOT array
row,Binder,"normalised SPOT signal, Boehringer light units (BLU); mean over the file's lines of this peptide"
1,YMQPIIPGKTESFE [YDR390C 151-164],62.4
2,WSYPYEPLRVLQVG [YDR415C 17-30],326
3,YGPPTDPRKQKQAK [YDR001C 36-49],156
4,YPSPAQPPKSPLLN [YER114C 448-461],92.5
5,YQYPQTPSKVDISI [YEL040W 243-256],36.3

# Second part, the binder after the results:
row,"normalised SPOT signal, Boehringer light units (BLU); mean over the file's lines of this peptide",Binder
1,8450,YILPKNPFRVPSEM [YGR293C 125-138]
2,137,YKIPVVPPRETYFA [YGR166W 507-520]
3,1480,YDFPTVPARKFVQP [YNR006W 578-591]
4,178,YLDPFHPKRKFIGV [YNL005C 96-109]

# Biological target: T2, Rvs167 SH3 (RV167_YEAST), P39743
# Experiment: SPOT array
row,Binder,"normalised SPOT signal, Boehringer light units (BLU); mean over the file's lines of this peptide"
1,YMQPIIPGKTESFE [YDR390C 151-164],498
2,WSYPYEPLRVLQVG [YDR415C 17-30],1090
3,YGPPTDPRKQKQAK [YDR001C 36-49],63.3
4,YPSPAQPPKSPLLN [YER114C 448-461],18.1
5,YQYPQTPSKVDISI [YEL040W 243-256],74.2

# Continued, values first:
row,"normalised SPOT signal, Boehringer light units (BLU); mean over the file's lines of this peptide",Binder
1,198,YILPKNPFRVPSEM [YGR293C 125-138]
2,385,YKIPVVPPRETYFA [YGR166W 507-520]
3,254,YDFPTVPARKFVQP [YNR006W 578-591]
4,57,YLDPFHPKRKFIGV [YNL005C 96-109]

# Biological target: T3, Yfr024 SH3 (LSB3_YEAST), P43603
# Experiment: SPOT array
row,Binder,"normalised SPOT signal, Boehringer light units (BLU); mean over the file's lines of this peptide"
1,YMQPIIPGKTESFE [YDR390C 151-164],596
2,WSYPYEPLRVLQVG [YDR415C 17-30],2320
3,YGPPTDPRKQKQAK [YDR001C 36-49],172
4,YPSPAQPPKSPLLN [YER114C 448-461],526
5,YQYPQTPSKVDISI [YEL040W 243-256],141

# Next, values leading:
row,"normalised SPOT signal, Boehringer light units (BLU); mean over the file's lines of this peptide",Binder
1,808,YILPKNPFRVPSEM [YGR293C 125-138]
2,3320,YKIPVVPPRETYFA [YGR166W 507-520]
3,804,YDFPTVPARKFVQP [YNR006W 578-591]
4,88.7,YLDPFHPKRKFIGV [YNL005C 96-109]

# Biological target: T4, Yhr016c SH3 (YSC84_YEAST), P32793
# Experiment: SPOT array
row,Binder,"normalised SPOT signal, Boehringer light units (BLU); mean over the file's lines of this peptide"
1,YMQPIIPGKTESFE [YDR390C 151-164],272
2,WSYPYEPLRVLQVG [YDR415C 17-30],802
3,YGPPTDPRKQKQAK [YDR001C 36-49],209
4,YPSPAQPPKSPLLN [YER114C 448-461],22.5
5,YQYPQTPSKVDISI [YEL040W 243-256],73.9

# Continued, values first:
row,"normalised SPOT signal, Boehringer light units (BLU); mean over the file's lines of this peptide",Binder
1,124,YILPKNPFRVPSEM [YGR293C 125-138]
2,1750,YKIPVVPPRETYFA [YGR166W 507-520]
3,258,YDFPTVPARKFVQP [YNR006W 578-591]
4,34.3,YLDPFHPKRKFIGV [YNL005C 96-109]

# Biological target: T5, Boi2 SH3 (BOI2_YEAST), P39969
# Experiment: SPOT array
row,Binder,"normalised SPOT signal, Boehringer light units (BLU); mean over the file's lines of this peptide"
1,YMQPIIPGKTESFE [YDR390C 151-164],259
2,WSYPYEPLRVLQVG [YDR415C 17-30],3020
3,YGPPTDPRKQKQAK [YDR001C 36-49],38.1
4,YPSPAQPPKSPLLN [YER114C 448-461],36.2
5,YQYPQTPSKVDISI [YEL040W 243-256],36.3

# Next, values leading:
row,"normalised SPOT signal, Boehringer light units (BLU); mean over the file's lines of this peptide",Binder
1,384,YILPKNPFRVPSEM [YGR293C 125-138]
2,26.2,YKIPVVPPRETYFA [YGR166W 507-520]
3,8.3,YDFPTVPARKFVQP [YNR006W 578-591]
4,58.3,YLDPFHPKRKFIGV [YNL005C 96-109]
